Positions count from the first letter of the chain named.
T1: EsCas13d, nuclease-dead (Eubacterium siraeum, UniProt B0MS50, R295A;H300A;R849A;H854A)
T1 sequence: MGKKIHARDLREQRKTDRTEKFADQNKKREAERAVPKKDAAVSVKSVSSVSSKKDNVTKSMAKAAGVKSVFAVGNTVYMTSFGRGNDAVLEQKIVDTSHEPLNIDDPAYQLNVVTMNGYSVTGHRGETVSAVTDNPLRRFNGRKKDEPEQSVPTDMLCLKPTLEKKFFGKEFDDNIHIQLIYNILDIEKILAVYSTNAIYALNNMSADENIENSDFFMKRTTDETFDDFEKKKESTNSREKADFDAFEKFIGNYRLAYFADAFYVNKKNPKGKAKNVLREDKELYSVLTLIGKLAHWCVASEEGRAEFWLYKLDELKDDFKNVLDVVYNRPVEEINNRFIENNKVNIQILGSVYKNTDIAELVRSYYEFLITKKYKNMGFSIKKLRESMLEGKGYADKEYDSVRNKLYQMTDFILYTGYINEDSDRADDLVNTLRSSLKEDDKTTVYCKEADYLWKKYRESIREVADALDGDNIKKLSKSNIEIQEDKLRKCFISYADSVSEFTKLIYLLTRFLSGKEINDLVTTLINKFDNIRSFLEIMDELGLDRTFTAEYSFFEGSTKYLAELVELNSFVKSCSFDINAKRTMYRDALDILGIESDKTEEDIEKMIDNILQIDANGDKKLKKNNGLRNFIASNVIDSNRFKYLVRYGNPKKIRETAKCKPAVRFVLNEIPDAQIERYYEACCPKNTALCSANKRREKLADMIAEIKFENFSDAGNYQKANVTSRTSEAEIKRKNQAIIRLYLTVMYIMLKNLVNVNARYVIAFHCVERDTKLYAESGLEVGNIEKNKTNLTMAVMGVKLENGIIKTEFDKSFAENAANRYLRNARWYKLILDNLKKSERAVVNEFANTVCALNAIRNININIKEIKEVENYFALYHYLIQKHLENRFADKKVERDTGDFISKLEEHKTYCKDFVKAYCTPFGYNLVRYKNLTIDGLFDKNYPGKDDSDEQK

B1: target 1 MT 5'PFS GCG 3'PFS CAU (mixed)
RNA 1: CACCCGUGCAAAAAUGCAGGGGUCUAAAACUGAGCGGAUAACCUCUCUAUGG
RNA 2: GGGAAUGGAUCCACAUCUACGAAUUCGCGCCAUAGAGAGGUUAUCCGCUCACAUAGAUCGGAAGAGCACACGU
B2: target 1 MT 5'PFS GCG 3'PFS CAG (mixed)
RNA 1: B1 RNA 1
RNA 2: B1 RNA 2 with U54G
B3: target 1 MT 5'PFS GCG 3'PFS CAA (mixed)
RNA 1: B1 RNA 1
RNA 2: B1 RNA 2 with U54A
B4: target 1 MT 5'PFS GCG 3'PFS CAC (mixed)
RNA 1: B1 RNA 1
RNA 2: B1 RNA 2 with U54C
B5: target 1 MT 5'PFS CUA 3'PFS AUG (mixed)
RNA 1: B1 RNA 1
RNA 2: B1 RNA 2 with G27C, C28U, G29A, C52A, A53U, U54G
B6: target 1 MT 5'PFS ACA 3'PFS CAU (mixed)
RNA 1: B1 RNA 1
RNA 2: B1 RNA 2 with G27A, G29A
B7: target 1 MT 5'PFS CUA 3'PFS AUA (mixed)
RNA 1: B1 RNA 1
RNA 2: B1 RNA 2 with G27C, C28U, G29A, C52A, A53U, U54A
B8: target 1 MT 5'PFS CCA 3'PFS ACU (mixed)
RNA 1: B1 RNA 1
RNA 2: B1 RNA 2 with G27C, G29A, C52A, A53C
B9: target 1 insG 3' of 18,insC 3' of 13 (mixed)
RNA 1: B1 RNA 1
RNA 2: GGGAAUGGAUCCACAUCUACGAAUUCGUACCAUAGGAGAGCGUUAUCCGCUCACCGAGAUCGGAAGAGCACACGU
B10: target 1 MT 5'PFS CUA 3'PFS AUC (mixed)
RNA 1: B1 RNA 1
RNA 2: B1 RNA 2 with G27C, C28U, G29A, C52A, A53U, U54C
B11: target 1 MT 5'PFS CUA 3'PFS AUU (mixed)
RNA 1: B1 RNA 1
RNA 2: B1 RNA 2 with G27C, C28U, G29A, C52A, A53U
B12: target 1 MT 5'PFS CCA 3'PFS ACG (mixed)
RNA 1: B1 RNA 1
RNA 2: B1 RNA 2 with G27C, G29A, C52A, A53C, U54G
B13: target 1 MT 5'PFS GCC 3'PFS AAG (mixed)
RNA 1: B1 RNA 1
RNA 2: B1 RNA 2 with G29C, C52A, U54G
B14: target 1 MT 5'PFS GCC 3'PFS AAC (mixed)
RNA 1: B1 RNA 1
RNA 2: B1 RNA 2 with G29C, C52A, U54C
B15: target 1 MT 5'PFS GCC 3'PFS AAA (mixed)
RNA 1: B1 RNA 1
RNA 2: B1 RNA 2 with G29C, C52A, U54A
B16: target 1 MT 5'PFS GCC 3'PFS AAU (mixed)
RNA 1: B1 RNA 1
RNA 2: B1 RNA 2 with G29C, C52A
B17: target 1 MT 5'PFS GCG 3'PFS ACU (mixed)
RNA 1: B1 RNA 1
RNA 2: B1 RNA 2 with C52A, A53C
B18: target 1 MT 5'PFS AAG 3'PFS AUG (mixed)
RNA 1: B1 RNA 1
RNA 2: B1 RNA 2 with G27A, C28A, C52A, A53U, U54G
B19: target 1 MT 5'PFS AAG 3'PFS AUA (mixed)
RNA 1: B1 RNA 1
RNA 2: B1 RNA 2 with G27A, C28A, C52A, A53U, U54A

Each binder was assayed against T1, EsCas13d, nuclease-dead (assay: crRNA (strand 1, pre-loaded); Mg2+; 40 mM Tris-HCl pH 7.5, 150 mM NaCl, 6 mM MgCl2, 1 mM DTT, 0.1% Tween-20, 0.2 mg/ml BSA; 25 C; 10 min per concentration, then washed). Conditions: tags: His6-TwinStrep-SUMO cleaved; N-terminal SNAP kept (SNAP-Surface 488); label: 3' end held by stalled T7 RNA polymerase.

Binder | Kd
B1 | ~29 nM
B2 | ~56.5 nM
B3 | 49.5 ± 24.5 nM
B4 | ~42 nM
B5 | 37 ± 10 nM
B6 | ~20 nM
B7 | 7.15 ± 1.5 nM
B8 | 14 ± 5.5 nM
B9 | 70 ± 24 nM
B10 | 14.2 ± 3.1 nM
B11 | 6.05 ± 1.65 nM
B12 | 3.95 ± 1.6 nM
B13 | 28 ± 6.5 nM
B14 | 23 ± 7.5 nM
B15 | 59.5 ± 19 nM
B16 | ~27 nM
B17 | 18.2 ± 3.9 nM
B18 | 33 ± 8.5 nM
B19 | 26.6 ± 7.15 nM

— article PMC10786891, “Massively parallel profiling of RNA-targeting CRISPR-Cas13d”
